Measurements as given in US20220265821A1 (PASCAL BIOSCIENCES, published 2022).
Changes are numbered by the printed parent chain.

T1: human VpreB (on the pre-BCR-expressing human pre-B cell line NALM-6) (human, UniProt P12018 20-145)
T1 construct: On NALM-6 cells VpreB stands in the pre-BCR together with lambda-5 and the mu heavy chain; also called VPREB1; VpreB subunit of the SLC of human pre-BCR
T1 sequence: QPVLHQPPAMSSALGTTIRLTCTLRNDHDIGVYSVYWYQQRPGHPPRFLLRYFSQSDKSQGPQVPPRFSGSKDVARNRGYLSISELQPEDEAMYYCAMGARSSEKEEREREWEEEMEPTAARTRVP

B1: VpreB antibody 5-2D7 (recombinant mouse-human chimeric IgG1/kappa) (antibody, V domains shown)
VH: QVQLQQPGAELVKPGASVKLSCKASGYTFTSYWMQWVKQRPGQGLEWIGEINPSNGRINYNEKFKSKATLTVDISSSTAYMQLSSLTSEDSAVYYCARSGLLDYWGQGTTLTDSS
VL: DVLMTQTPLSLPVSLGDQASISCRSSQSLIHSNGNTYLHWSLQKPGQSPKLLIYKVSNRFSGVPDRFSGSGSGTDFTLKISSVEAEDLGVYFCSQSTYVPLTFGAGTKLELKR
notes: also called mAb 5-2D7
B2: VpreB antibody 5-11D1 (recombinant mouse-human chimeric IgG1/kappa) (antibody, V domains shown)
VH: EVQLEESGPSLVKPSQTLSLTCSVTGDSITSDYWTWIRKFPGNKLEYMGYISYSGRTYYNPSLKSRISITRDTSRNQYYLQLSSVTTEDTATYYCARERYYYGSLDYWGQGTTLTVSS
VL: B1 VL with I30V, S41Y, S82R, S96T, Y98H, L101P, A105G, L111I
notes: also called mAb 5-11D1
B3: VpreB antibody 5-14H5 (recombinant mouse-human chimeric IgG1/kappa) (antibody, V domains shown)
VH: B1 VH with Y32N, Q35N, I74K, D113V
VL: B1 VL with I30V, S41Y, S82R, V99L, K108R
notes: also called mAb 5-14H5
B4: VpreB antibody 5-4A9 (recombinant mouse-human chimeric IgG1/kappa) (antibody, V domains shown)
VH: B1 VH with Q1E, P7S, K19Q, I58N, S66R, I74T, D113V
VL: B1 VL with I30V, S41Y, K79T, S82R
notes: also called mAb 5-4A9
B5: VpreB antibody 5-14A8 (recombinant mouse-human chimeric IgG1/kappa) (antibody, V domains shown)
VH: B2 VH with K44I, Y53S, T57I, R75K
VL: B1 VL with S28G, I30V, S41Y, S82R, S96T, Y98H, L101P, A105G, L111I
notes: also called mAb 5-14A8
B6: VpreB antibody 5-9B12 (recombinant mouse-human chimeric IgG1/kappa) (antibody, V domains shown)
VH: B2 VH with R75K, N76K, S83N
VL: B1 VL with L3V, I30V, S41Y, S82R, S96T, Y98H, L101P, A105G, L111I
notes: also called mAb 5-9B12
B7: lambda-5 antibody 4-5G11 (recombinant mouse-human chimeric IgG1/kappa) (antibody)
heavy: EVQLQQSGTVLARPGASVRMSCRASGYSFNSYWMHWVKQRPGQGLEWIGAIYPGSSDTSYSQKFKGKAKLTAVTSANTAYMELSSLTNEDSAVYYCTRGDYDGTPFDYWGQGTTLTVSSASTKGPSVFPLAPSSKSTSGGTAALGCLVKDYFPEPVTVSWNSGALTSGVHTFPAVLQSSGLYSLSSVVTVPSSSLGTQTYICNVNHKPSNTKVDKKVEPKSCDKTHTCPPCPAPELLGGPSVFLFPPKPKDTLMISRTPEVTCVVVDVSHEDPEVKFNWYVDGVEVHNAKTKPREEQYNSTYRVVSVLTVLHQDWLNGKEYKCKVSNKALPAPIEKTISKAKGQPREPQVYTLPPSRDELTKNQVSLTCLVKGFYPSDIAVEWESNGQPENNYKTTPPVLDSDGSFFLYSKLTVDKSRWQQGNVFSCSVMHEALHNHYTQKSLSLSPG
light: DILMTQSPLTLSVTIGQPASISCKSGQSLLDSDGKTYLNWLLQRPGQSPKRLIYLVSKLHSGVPDRFTGSGSGTDFTLKISRVEAEDLGVYYCWQGTHFPLTFGAGTKLELKRTVAAPSVFIFPPSDEQLKSGTASVVCLLNNFYPREAKVQWKVDNALQSGNSQESVTEQDSKDSTYSLSSTLTLSKADYEKHKVYACEVTHQGLSSPVTKSFNRGEC
notes: also called mAb 4-5G11
B8: lambda-5 antibody 4-9H8 (recombinant mouse-human chimeric IgG1/kappa) (antibody)
heavy: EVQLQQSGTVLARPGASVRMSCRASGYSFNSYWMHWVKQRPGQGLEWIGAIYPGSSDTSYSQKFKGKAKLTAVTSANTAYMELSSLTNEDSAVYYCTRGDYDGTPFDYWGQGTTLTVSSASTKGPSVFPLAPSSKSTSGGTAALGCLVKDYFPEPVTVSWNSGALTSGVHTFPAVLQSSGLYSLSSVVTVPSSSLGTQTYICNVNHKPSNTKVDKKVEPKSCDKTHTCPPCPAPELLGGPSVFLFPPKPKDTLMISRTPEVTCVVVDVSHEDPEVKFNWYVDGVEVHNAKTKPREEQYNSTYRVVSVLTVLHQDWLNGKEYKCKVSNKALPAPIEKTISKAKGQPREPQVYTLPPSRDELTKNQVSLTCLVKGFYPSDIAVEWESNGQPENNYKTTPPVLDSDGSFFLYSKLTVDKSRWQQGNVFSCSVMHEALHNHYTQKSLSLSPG
light: B7 light with L3V
notes: also called mAb 4-9H8
B9: lambda-5 antibody 4-19A9 (recombinant mouse-human chimeric IgG1/kappa) (antibody, V domains shown)
VH: EVQLQQSGTVLARPGASVKMSCKASGYTFTSYWMHWVKQRPGQGLEWIGAIYPGNSDTSYNQKFKGKARLTAVTSASTAYMELSSLTNEDSAVYYCTRADYDGTPFDYWGQGTTLTVSS
VL: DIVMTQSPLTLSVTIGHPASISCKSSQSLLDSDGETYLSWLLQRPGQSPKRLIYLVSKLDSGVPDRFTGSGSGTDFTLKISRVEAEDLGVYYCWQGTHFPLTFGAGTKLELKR
notes: also called mAb 4-19A9
B10: lambda-5 antibody 4-6D12 (recombinant mouse-human chimeric IgG1/kappa) (antibody, V domains shown)
VH: B9 VH with S31N, R69K, Y95F
VL: DILMTQSPLTLSVTIGHPASISCKSSQSLLDSDGETYLSWLLQRPGQSPERLIYLVSKLDSGVPDRFTGSGSGTDFTLKISRVEAEDLGVYYCWQGTHFPLTFGAGTKLELKR
notes: also called mAb 4-6D12
B11: lambda-5 antibody 4-17G9 (recombinant mouse-human chimeric IgG1/kappa) (antibody, V domains shown)
VH: B9 VH with K23Q, S31N, K63N, R69E, S77T, N88D
VL: B10 VL with L3V, E50K, L109V
notes: also called mAb 4-17G9
B12: lambda-5 antibody 4-18G6 (recombinant mouse-human chimeric IgG1/kappa) (antibody, V domains shown)
VH: B9 VH with S31N, I51V, N61S, K65T, R69K, E82D
VL: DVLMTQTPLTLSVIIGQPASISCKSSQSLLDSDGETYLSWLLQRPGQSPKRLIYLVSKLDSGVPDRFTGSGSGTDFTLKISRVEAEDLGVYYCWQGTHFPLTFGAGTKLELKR
notes: also called mAb 4-18G6
B13: lambda-5 antibody 4-20D2 (recombinant mouse-human chimeric IgG1/kappa) (antibody, V domains shown)
VH: B9 VH with T28S, R69K, A99G
VL: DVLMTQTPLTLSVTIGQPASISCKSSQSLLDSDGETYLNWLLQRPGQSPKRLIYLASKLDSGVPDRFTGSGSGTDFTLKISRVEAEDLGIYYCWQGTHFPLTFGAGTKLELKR
notes: also called mAb 4-20D2
B14: lambda-5 antibody 4-7C1 (recombinant mouse-human chimeric IgG1/kappa) (antibody, V domains shown)
VH: B9 VH with K23R, A24P, G44D, R69K
VL: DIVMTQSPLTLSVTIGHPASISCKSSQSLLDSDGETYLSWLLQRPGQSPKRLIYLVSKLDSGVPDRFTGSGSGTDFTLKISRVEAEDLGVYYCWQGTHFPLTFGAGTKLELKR
notes: also called mAb 4-7C1
B15: lambda-5 antibody 4-7A6 (recombinant mouse-human chimeric IgG1/kappa) (antibody, V domains shown)
VH: B9 VH with A16T, P53L, S56T, R69K, T78S
VL: B10 VL with I2V, L3V, S7N, P8A, K24R, E50K
notes: also called mAb 4-7A6
B16: lambda-5 antibody 4-15E6 (recombinant mouse-human chimeric IgG1/kappa) (antibody, V domains shown)
VH: EVQLEESGAELVRSGASVKLSCTASGFNIKDYYLHWVKQRPEQGLEWIGWIDPENGNTDYAPKFQGKATMTADTSSNTAYLQLSSLTSEDTAVYYCNEGYYDYDTDSAMDYWGQGTSVTVSS
VL: B1 VL with I30V, N33D, N35I, S41Y, S82R, Y98R, L101W, A105G, L111I
notes: also called mAb 4-15E6
B17: lambda-5 antibody 4-12G1 (recombinant mouse-human chimeric IgG1/kappa) (antibody, V domains shown)
VH: B16 VH with N57A, T69S, S88F, T105A
VL: B1 VL with I30V, N33D, N35I, S41Y, S82R, T97A, Y98R, L101W, A105G, L111I
notes: also called mAb 4-12G1

Target: T1, human VpreB (on the pre-BCR-expressing …)
Assay: flow cytometry, saturation binding of recombinant chimeric mAb to NALM-6 cells

| Binder | EC50 [nM] |
| --- | --- |
| B1 | < 0.4 |
| B2 | < 0.4 |
| B3 | < 0.4 |
| B4 | < 0.4 |
| B5 | < 0.4 |
| B6 | < 0.4 |

Target: T2, human lambda-5 (on the pre-BCR-expressing human pre-B cell line NALM-6) (human, UniProt P15814 38-213)
T2 construct: On NALM-6 cells lambda-5 stands in the pre-BCR together with VpreB and the mu heavy chain; also called IGLL1; lambda-5 subunit of the SLC of human pre-BCR
Assay: as above

T2 sequence (P15814 38-213 limits assumed): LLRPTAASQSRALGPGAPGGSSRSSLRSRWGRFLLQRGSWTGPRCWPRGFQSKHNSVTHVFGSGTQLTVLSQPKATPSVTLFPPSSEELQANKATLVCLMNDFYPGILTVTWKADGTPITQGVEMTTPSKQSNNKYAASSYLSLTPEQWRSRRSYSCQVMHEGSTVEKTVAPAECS

| Binder | EC50 [nM] |
| --- | --- |
| B7 | < 30 |
| B8 | < 30 |
| B9 | < 30 |
| B10 | < 30 |
| B11 | < 30 |
| B12 | < 30 |
| B13 | < 30 |
| B14 | < 30 |
| B15 | < 30 |
| B16 | < 30 |
| B17 | < 30 |

Target: T2, human lambda-5 (on the …)
Assay: as above
Remark: another data set of the same source
Protocol: (§1) Avidity of each VpreB antibody was determined by measuring saturation binding kinetics of antibody to NALM-6 cells using flow cytometry as follows. The cells were stained with a 3-fold descending titration of recombinant, chimeric VpreB antibody ranging from 133 nM to 0.002 nM. A PE/Cy5-labeled mouse anti-human IgG1 secondary antibody (Southern Biotech #9042-13) was used to detect cell-bound anti-VpreB or an IgG1 isotype control antibody (PAS-ISO6H4). The 50% effective concentration (EC₅₀) was calculated using GraphPad Prism software. Antibodies 5-4A9, 5-11D1, 5-14A8, and 5-14H5 all bound to VpreB-expressing NALM-6 cells with unusually strong binding avidity (<400 pM; FIG. 13, Table 16).
The avidity of each lambda-5 antibody was determined by measuring saturation binding kinetics of recombinant, chimeric mAb to NALM-6 cells using flow cytometry as described for the VpreB antibody saturation binding kinetics experiment. Antibodies 4-6D12, 4-5G11, 4-7A6, 4-7C1, 4-9H8, 4-12G1, 4-15E6, 4-17G9, 4-18G6, 4-19A9, and 4-20D2 all bound to VpreB- expressing NALM-6 cells with strong avidity (<30 nM; FIG. 16, Table 18).

| Binder | EC50 [nM] |
| --- | --- |
| B7 | 6.2 |
| B8 | 7.4 |
| B9 | 8.1 |
| B10 | 1.9 |
| B11 | 9 |
| B12 | 10.2 |
| B13 | 26.3 |
| B14 | 8.4 |
| B15 | 2.3 |
| B16 | 3.7 |
| B17 | 4.5 |

Target: T1, human VpreB (on the pre-BCR-expressing …)
Assay: as above
Remark: another data set of the same source
Protocol: as §1
The binding avidity of the VpreB mAbs 5-2D7 and 5-9B12 was also determined by measuring saturation binding kinetics of recombinant, chimeric mAb to NALM-6 cells using flow cytometry as described above. Both mAbs bound to VpreB-expressing NALM-6 cells with unusually strong avidity (<400 pM; FIG. 15, Table 17).

| Binder | EC50 [nM] |
| --- | --- |
| B1 | 0.34 |
| B6 | 0.12 |

Target: T1, human VpreB (on the pre-BCR-expressing …)
Assay: as above
Remark: another data set of the same source
Protocol: as §1

| Binder | EC50 [nM] |
| --- | --- |
| B2 | 0.143 |
| B3 | 0.115 |
| B4 | 0.396 |
| B5 | 0.227 |
